Measurements: paper PMC2854692

Target: Glucagon receptor (UniProt P47871)
Sequence of UniProt P47871 (P47871 26-477): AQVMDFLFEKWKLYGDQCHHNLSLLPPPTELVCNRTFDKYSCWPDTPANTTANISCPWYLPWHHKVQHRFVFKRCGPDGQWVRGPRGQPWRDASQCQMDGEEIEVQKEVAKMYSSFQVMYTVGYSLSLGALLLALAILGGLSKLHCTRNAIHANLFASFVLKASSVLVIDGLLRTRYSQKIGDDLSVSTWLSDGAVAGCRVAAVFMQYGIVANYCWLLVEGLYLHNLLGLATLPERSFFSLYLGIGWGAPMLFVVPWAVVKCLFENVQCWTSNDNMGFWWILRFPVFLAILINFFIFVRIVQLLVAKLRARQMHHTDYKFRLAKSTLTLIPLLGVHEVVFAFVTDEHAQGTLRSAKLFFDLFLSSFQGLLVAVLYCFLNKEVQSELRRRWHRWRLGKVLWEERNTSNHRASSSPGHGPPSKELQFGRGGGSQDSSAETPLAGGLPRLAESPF

B1: Gcg-XTEN (ligand)
chain: HSQGTFTSDYSKYLDSRRAQDFVQWLMNTGGTSTPESGSASPGTSPSGESSTAPGTSPSGESSTAPGSTSSTAESPGPGSTSESPSGTAPGSTSSTAESPGPGTSPSGESSTAPGTSTPESGSASPGSTSSTAESPGPGTSPSGESSTAPGTSPSGESSTAPGTSPSGESSTAPG
potency in the Ca2+-flux assay (FLIPR) on a transfected GcgR cell line, relative to unmodified glucagon, molar basis (% of the potency of unmodified glucagon): 15
